This assay has as its target Omicron RBD (SARS-CoV-2 Omicron BA.1 (B.1.1.529), S371L | S373P | S375F | K417N | G446S | S477N | E484A | Q493R | G496S | Q498R | …). The experiment in a line: SPR. To be noted: both partners purified.

B1: S304 antibody (IgG1) (antibody, V domains shown)
VH: EVQLVESGGGLVQPGGSLRLSCAASGFTFSSYDMHWVRQTTGKGLEWVSTIGTAGDTYYPDSVKGRFTISREDAKNSLYLQMNSLRAGDTAVYYCARGDSSGYYYYFDYWGQGTLLTVSS
VL: DIQMTQSPSSLSAAVGDRVTITCRASQSIGSYLNWYQQKPGKAPKLLIYAASSLQSGVPSRFSGSGSGTDFTLTISSLQPEDFAIYYCQQSYVSPTYTFGPGTKVDIK
notes: IgG1
Regarding B1, binding was put at a Kd of 1.01 nM.

The record behind these values is paper PMC9399999 (Nature Communications, 2022).
